B1: KLHL13 (parent)
chain: GVSKVGLRKIIDFIYTAKLSLNMD

Variants of: B1
Assay: protein stability index of a GFP-peptide fusion (GPS, HEK-293T) (PSI 1-6); higher = more stable
Settings: c terminus: a fixed tail appended
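Note: lentivirally expressed fusions sorted by FACS into six bins by GFP to DsRed ratio, PSI derived from sequencing read proportions per bin multiplied by bin number.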

| Variant | protein stability index |
| --- | --- |
| GVSKVGLRKIIDFIYTAKLSLNGD | 3.36 |
| GVSKVGLRKIIDFIYTAKLSLNYD | 3.73 |
| GVSKVGLRKIIDFIYTAKLSLNSD | 1.79 |
| GVSKVGLRKIIDFIYTAKLSLNCD | 2.45 |
| GVSKVGLRKIIDFIYTAKLSLNKD | 1 |
| GVSKVGLRKIIDFIYTAKLSLNTD | 2.19 |
| GVSKVGLRKIIDFIYTAKLSLNAD | 2.48 |
| GVSKVGLRKIIDFIYTAKLSLNHD | 3.04 |
| GVSKVGLRKIIDFIYTAKLSLNDD | 2.09 |
| GVSKVGLRKIIDFIYTAKLSLPMD | 4.34 |
| GVSKVGLRKIIDFIYTAKLSLEMD | 2.73 |
| GVSKVGLRKIIDFIYTAKLSLMMD | 2.26 |
| GVSKVGLRKIIDFIYTAKLSLIMD | 2.68 |
| GVSKVGLRKIIDFIYTAKLSLVMD | 1.32 |
| GVSKVGLRKIIDFIYTAKLSLDMD | 2.3 |
| GVSKVGLRKIIDFIYTAKLSLYMD | 1.99 |
| GVSKVGLRKIIDFIYTAKLSLSMD | 2.36 |
| GVSKVGLRKIIDFIYTAKLSLWMD | 1.31 |
| GVSKVGLRKIIDFIYTAKLSLRMD | 2.09 |
| GVSKVGLRKIIDFIYTAKLSLFMD | 3.75 |
| GVSKVGLRKIIDFIYTAKLSLAMD | 3.65 |
| GVSKVGLRKIIDFIYTAKLSLLMD | 2.11 |
| GVSKVGLRKIIDFIYTAKLSLQMD | 1.9 |
| GVSKVGLRKIIDFIYTAKLSLHMD | 2.41 |

| Variant | protein stability index |
| --- | --- |
| GVSKVGLRKIIDFIYTAKLSWNMD | 1.96 |
| GVSKVGLRKIIDFIYTAKLSDNMD | 1.8 |
| GVSKVGLRKIIDFIYTAKLSQNMD | 3.01 |
| GVSKVGLRKIIDFIYTAKLSCNMD | 2.69 |
| GVSKVGLRKIIDFIYTAKLSNNMD | 1.83 |
| GVSKVGLRKIIDFIYTAKLSFNMD | 2.21 |
| GVSKVGLRKIIDFIYTAKLSPNMD | 1.86 |
| GVSKVGLRKIIDFIYTAKLSSNMD | 2.72 |
| GVSKVGLRKIIDFIYTAKLSENMD | 1.53 |
| GVSKVGLRKIIDFIYTAKLSANMD | 1.94 |
| GVSKVGLRKIIDFIYTAKCSLNMD | 2.34 |
| GVSKVGLRKIIDFIYTAKQSLNMD | 2.21 |
| GVSKVGLRKIIDFIYTAKVSLNMD | 3.11 |
| GVSKVGLRKIIDFIYTAKHSLNMD | 1.87 |
| GVSKVGLRKIIDFIYTAKWSLNMD | 2.93 |
| GVSKVGLRKIIDFIYTAKSSLNMD | 1.63 |
| GVSKVGLRKIIDFIYTAKDSLNMD | 1.36 |
| GVSKVGLRKIIDFIYTAKTSLNMD | 2.95 |
| GVSKVGLRKIIDFIYTAKNSLNMD | 3.62 |
| GVSKVGLRKIIDFIYYAKLSLNMD | 2.74 |
| GVSKVGLRKIIDFIYGAKLSLNMD | 2.86 |
| GVSKVGLRKIIDFIYMAKLSLNMD | 1.95 |
| GVSKVGLRKIIDFIYPAKLSLNMD | 2.57 |
| GVSKVGLRKIIDFIYHAKLSLNMD | 1.63 |

| Variant | protein stability index |
| --- | --- |
| GVSKVGLRKIIDFIYEAKLSLNMD | 1.95 |
| GVSKVGLRKIIDFIYWAKLSLNMD | 1.79 |
| GVSKVGLRKIIDFIYIAKLSLNMD | 2.72 |
| GVSKVGLRKIIDFIYRAKLSLNMD | 2.69 |
| GVSKVGLRKIIDFIYVAKLSLNMD | 1.81 |
| GVSKVGLRKIIDFIQTAKLSLNMD | 1.36 |
| GVSKVGLRKIIDFIRTAKLSLNMD | 4.12 |
| GVSKVGLRKIIDFITTAKLSLNMD | 2.52 |
| GVSKVGLRKIIDFIMTAKLSLNMD | 2.48 |
| GVSKVGLRKIIDFINTAKLSLNMD | 4.89 |
| GVSKVGLRKIIDFIPTAKLSLNMD | 1.84 |
| GVSKVGLRKIIDFIYTAKLELNMD | 4.11 |
| GVSKVGLRKIIDFIYTAKLHLNMD | 2.7 |
| GVSKVGLRKIIDFIYTAKLILNMD | 2.04 |
| GVSKVGLRKIIDFIYTAKLVLNMD | 1.96 |
| GVSKVGLRKIIDFIYTAKLKLNMD | 3.46 |
| GVSKVGLRKIIDFIYTAKLNLNMD | 3.26 |
| GVSKVGLRKIIDFIYTAKLWLNMD | 1.85 |
| GVSKVGLRKIIDFIYTAKLLLNMD | 2.67 |
| GVSKVGLRKIIDFIYTAKLRLNMD | 2.11 |
| GVSKVGLRKIIDFIYTAKLPLNMD | 2.25 |
| GVSKVGLRKIIDFIYTAKLALNMD | 3.46 |
| GVSKVGLRKIIDFIYTAKLQLNMD | 1.68 |
| GVSKVGLRKIIDFIYTEKLSLNMD | 1.81 |

| Variant | protein stability index |
| --- | --- |
| GVSKVGLRKIIDFIYTWKLSLNMD | 3.08 |
| GVSKVGLRKIIDFIYTPKLSLNMD | 2.39 |
| GVSKVGLRKIIDFIYTSKLSLNMD | 1.75 |
| GVSKVGLRKIIDFIYTRKLSLNMD | 2.95 |
| GVSKVGLRKIIDFIYTGKLSLNMD | 3.4 |
| GVSKVGLRKIIDFIYTVKLSLNMD | 1.56 |
| GVSKVGLRKIIDFIYTYKLSLNMD | 3.45 |
| GVSKVGLRKIIDFIYTKKLSLNMD | 2.73 |
| GVSKVGLRKIIDFIYTAKLSLNMV | 2.49 |
| GVSKVGLRKIIDFIYTAKLSLNMR | 3.43 |
| GVSKVGLRKIIDFIYTAKLSLNML | 2.01 |
| GVSKVGLRKIIDFIYTAKLSLNMQ | 2.15 |
| GVSKVGLRKIIDFIYTAKLSLNMN | 2.74 |
| GVSKVGLRKIIDFIYTAKLSLNMA | 3.2 |
| GVSKVGLRKIIDFIYTAKLSLNMP | 2.88 |
| GVSKVGLRKIIDFIYTAKLSLNMG | 3.65 |
| GVSKVGLRKIIDFIYTAKLSLNMY | 2.2 |
| GVSKVGLRKIIDFIYTAKLSLNMH | 3.01 |
| GVSKVGLRKIIDFIYTAKLSLNMF | 2.82 |
| GVSKVGLRKIIDFIYTAKLSLNMM | 2.28 |
| GVSKVGLRKIIDFIYTAKLSLNMK | 1.71 |
| GVSKVGLRKIIDFIYTAKLSLNMT | 3.01 |

From the supplement of paper PMC10567573
